Measured values taken from patent publication US20120316071A1 (published 2012).

Experiments:
[1] = molecular target: T1, Recombinant Human DLL4 (delta-like protein 4) (human, UniProt Q9NR61 27-529); experiment: 96-well plate ECL (MSD) binding assay on coated DLL4, 10 nM Fab
T1 construct: Bought recombinant human DLL4 (R&D Systems Cat#1506-D4/CF), coated on the plate; also called rHuman DLL4; Delta-like 4

[2] = molecular target: T1, Recombinant Human DLL4 (delta-like …); experiment: ELISA on coated DLL4, 100 nM Fab

B1: Fab VH1-46_IGHD6-6*01_IGHJ1*01 S102A/S103P/S104F/H111F/I51S/N52L/S54T/G56H (APFF SLTH) & L6_IGKJ1*01 (Fab, V domains shown)
VH: QVQLVQSGAEVKKPGASVKVSCKASGYTFTSYYMHWVRQAPGQGLEWMGISLPTGHSTSYAQKFQGRVTMTRDTSTSTVYMELSSLRSEDTAVYYCAREEYAPFSAEYFQFWGQGTLVTVSS
VL: not shown
notes: Fab made in E. coli; CH1 with tags and kappa CL are not included
ECL signal [1]: 135000 | ELISA signal [2]: 0.786
